Laboratory results taken from PMC5450235, “Predicting the targeting of tail-anchored proteins to subcellular compartments in mammalian cells” (Journal of Cell Science, 2017).
No end group written: not given here. *: point of attachment. FITC = O=C1OC2(c3ccc(O)cc3Oc3cc(O)ccc32)c2ccc(NC(=S)*)cc21

T1: recombinant full-length human PEX19 (human, UniProt P40855 1-299)
T1 construct: PEX19, human, full length, cloned into pETM11; also called recombinant PEX19
T1 sequence (looked up): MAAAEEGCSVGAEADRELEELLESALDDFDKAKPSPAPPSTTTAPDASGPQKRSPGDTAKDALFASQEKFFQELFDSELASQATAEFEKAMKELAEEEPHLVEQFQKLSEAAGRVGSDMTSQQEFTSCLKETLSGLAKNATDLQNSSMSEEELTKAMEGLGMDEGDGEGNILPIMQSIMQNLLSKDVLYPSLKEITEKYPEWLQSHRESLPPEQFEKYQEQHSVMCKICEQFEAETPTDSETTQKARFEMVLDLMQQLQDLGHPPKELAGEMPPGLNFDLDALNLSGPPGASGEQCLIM

B1: FITC-labelled peptide ACBD5 WT (peptide)
peptide: {FITC}-SPGVLTFAIIWPFIAQWLVYLYYQRRRRKL
notes: TMD and tail region of ACBD5; the C-terminal asparagine residue was removed to facilitate peptide synthesis; also called ACBD5-TMD-T WT peptide; source: synthetic peptide (Genscript)
B2: FITC-labelled peptide ACBD5 MUT1 (peptide)
peptide: {FITC}-SPGVLTFAIIWPFIAQWLVYLYYQRARAKL
notes: the C-terminal asparagine was removed; also called MUT1 peptide; peptide MUT1; source: synthetic peptide (Genscript)
B3: FITC-labelled peptide ACBD5 MUT2 (peptide)
peptide: {FITC}-SPGVLTFAIIWPFIAQWLVYLYYQAAAAKL
notes: the C-terminal asparagine was removed; also called MUT2 peptide; source: synthetic peptide (Genscript)

biological target: T1, recombinant full-length human PEX19; experiment: fluorescence polarisation; fluorescence anisotropy; FITC peptide at 6.7 nM, protein titrated (dilution series, factor 1.5); 25°C; 50 mM Tris-HCl pH 7.5, 250 mM NaCl, 0.5 mM TCEP with 0.67 mg/ml BSA, no detergent; 1:1 hyperbolic fit; conditions: both partners purified

| Binder | Kd |
| --- | --- |
| B1 | 900 nM |
| B2 | 1900 nM |
| B3 | 7700 nM |
